This is an account of results in patent US20190194334A1.

This test addresses cell surface (plasma membrane) nucleolin of human tumor cells (human) (UniProt P19338). Kind of test: flow cytometry of non-permeabilized MCF-7 cells, dot plot of side scatter against FITC fluorescence [B].
Chain of UniProt P19338 (P19338 2-710 limits assumed): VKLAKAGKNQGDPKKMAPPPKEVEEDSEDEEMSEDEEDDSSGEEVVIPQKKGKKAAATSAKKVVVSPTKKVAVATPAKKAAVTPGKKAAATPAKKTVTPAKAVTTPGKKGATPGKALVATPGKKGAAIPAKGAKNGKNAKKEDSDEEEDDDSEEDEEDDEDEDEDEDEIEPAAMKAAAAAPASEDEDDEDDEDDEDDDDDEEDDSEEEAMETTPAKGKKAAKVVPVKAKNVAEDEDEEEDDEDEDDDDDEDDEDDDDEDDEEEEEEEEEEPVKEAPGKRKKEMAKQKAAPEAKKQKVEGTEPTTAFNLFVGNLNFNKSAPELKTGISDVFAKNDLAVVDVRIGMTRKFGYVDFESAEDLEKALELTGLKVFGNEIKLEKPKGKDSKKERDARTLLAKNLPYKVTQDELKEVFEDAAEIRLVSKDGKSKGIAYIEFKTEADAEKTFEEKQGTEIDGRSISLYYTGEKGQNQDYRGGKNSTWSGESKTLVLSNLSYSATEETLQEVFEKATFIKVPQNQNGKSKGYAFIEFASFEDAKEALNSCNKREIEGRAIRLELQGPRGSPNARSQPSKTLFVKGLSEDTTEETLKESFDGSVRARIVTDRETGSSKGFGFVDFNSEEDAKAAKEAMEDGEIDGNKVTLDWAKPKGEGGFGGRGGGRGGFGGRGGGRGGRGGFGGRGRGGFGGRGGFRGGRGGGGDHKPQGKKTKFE

Regarding Control IgG-FITC (antibody), the percent of cells in the FITC-positive gate was found to be 1.5%.
